Test results published in patent publication US20130309670.

Experiments:
[1] = test system: Il2rg ZFN-2 (zinc finger-FokI nuclease) (synthetic construct); assay: cell_activity; details: pair ZFN-1+ZFN-2, clones with ZFN cleavage (6/192) in mouse F1H4 ES cells without LTVEC; 6.9% among non-targeted clones with LTVEC; 6 bp spacer
[2] = test system: Il2rg ZFN-1 (zinc finger-FokI nuclease) (synthetic construct); assay: cell_activity; details: pair ZFN-1+ZFN-2, clones with ZFN cleavage (6/192) in mouse F1H4 ES cells without LTVEC; 6.9% among non-targeted clones with LTVEC; 6 bp spacer

Row | Sequence | activity [1] | activity [2]
1 | GTCTTCATTCGCACT (double strand) [Il2rg exon 1 ZFN-2 half-site (antisense strand)] | 3.1% | 
2 | AGCTCCAAGGTCCTC (double strand) [Il2rg exon 1 ZFN-1 half-site (sense strand)] |  | 3.1%
